Reference: paper PMC9231606, “Membrane insertion mechanism of the caveola coat protein Cavin1” (Proceedings of the National Academy of Sciences of the …, 2022)

Molecular target: the molecule itself
Experiment: mass photometry; sample 25 to 100 nM in a gasket well on glass coverslips, acquisition for 60 s; mass from contrast comparison with bovine serum albumin calibrants

B1: Cavin1 (1–190) (domain or fragment, UniProt O54724 1-190, looked up)
chain: MEDVTLHIVERPYSGFPDASSEGPEPTQGEARATEEPSGTGSDELIKSDQVNGVLVLSLLDKIIGAVDQIQLTQAQLEERQAEMEGAVQSIQGELSKLGKAHATTSNTVSKLLEKVRKVSVNVKTVRGSLERQAGQIKKLEVNEAELLRRRNFKVMIYQDEVKLPAKLSVSKSLKESEALPEKEGDELGE
notes: Cavin1, residues 1 to 190 (DR1 1–43, HR1 45–155, DR2 156–190); By mass photometry it was detected as trimers and also as monomers; also called N-terminal part (residues 1 to 190); DR1–HR1–DR2; source: E. coli Rosetta pLysS or BL21(DE3)pLysS, purified (TALON Superflow, gel filtration on Sephacryl S-300 HR)
  stoichiometry N: 3
